Test results taken from the RNAGym collection of RNA variant scans (doi:10.7554/elife.90254).

B1: LINE1-full (parent)
chain: UACGUAGGUGGUUUUCCCCUGAUAGUGCUAAGGGGGCCUGGAAGUUUGGACUGGGCAGAGCUCAACACAGCGUGGCAAAGUGGCUGUGGCUAGACUGCCUCUCUGGAUUCCUCGUCACUCAGCAGGGCAUCUCUGAGAGAAAUGCC

Variants of: B1
Test: self-cleavage, relative activity (ratio to wild type); higher = more cleavage; in vitro, sequencing; the parent is a self-cleaving ribozyme
Variant G53A U87C has a self-cleavage of 0.18. G53A U96A gave a self-cleavage of 0.06. G53A U100C showed a self-cleavage of 1.09. Variant G53A U102A has a self-cleavage of 1.3. For G53A U102G, the self-cleavage was 0.68. Work on G53A U108C yielded a self-cleavage of 1.97. G53A U109C gave a self-cleavage of 0.27. With G53A U115A the self-cleavage was 1.31. G53A U115C showed a self-cleavage of 1.07. Variant G53A U134G has a self-cleavage of 0.56. G53C showed a self-cleavage of 1.13. Variant G53C A65U has a self-cleavage of 0.2. Work on G53C A136G yielded a self-cleavage of 0.36. With G53U the self-cleavage was 1.25. Variant G53U A64U has a self-cleavage of 0.45. G53U A65C showed a self-cleavage of 0.07. G53U A77G showed a self-cleavage of 2.05. For G53U A78G, the self-cleavage was 0.71. With G53U A107G the self-cleavage was 1.08. Variant G53U A140C has a self-cleavage of 0.8. For G53U A141G, the self-cleavage was 1.58. Variant G53U A142G has a self-cleavage of 1.2. G53U C99U gave a self-cleavage of 0.13. Work on G53U G60U yielded a self-cleavage of 0.03. For G53U G70C, the self-cleavage was 0.14. G53U U62C gave a self-cleavage of 0.08. In the case of G53U U81A, the self-cleavage is reported as 1.52. Work on G53U U85A yielded a self-cleavage of 0.11. G53U U104C gave a self-cleavage of 2.38. Work on G53U U108C yielded a self-cleavage of 1.56. G53U U112C showed a self-cleavage of 1.31. In the case of G53U U115C, the self-cleavage is reported as 1.91. In the case of G53U U119A, the self-cleavage is reported as 1.33. G53U U130A showed a self-cleavage of 1.53. G53U U134A showed a self-cleavage of 0.68. In the case of G53U U143C, the self-cleavage is reported as 1.14. Work on G54A A64G yielded a self-cleavage of 0.13. With G54A A65G the self-cleavage was 0.02. G54A A65U showed a self-cleavage of 0.1. G54A A67G gave a self-cleavage of 0.12. Variant G54A A69G has a self-cleavage of 0.18. Work on G54A A77G yielded a self-cleavage of 1.02. In the case of G54A A78U, the self-cleavage is reported as 0.79. In the case of G54A A92G, the self-cleavage is reported as 0.04. G54A A117G gave a self-cleavage of 0.52. G54A A121C showed a self-cleavage of 1.05. G54A A121G gave a self-cleavage of 0.51. For G54A A129G, the self-cleavage was 0.76. G54A A129U showed a self-cleavage of 0.4. In the case of G54A A136G, the self-cleavage is reported as 0.62. G54A A136U gave a self-cleavage of 0.67. With G54A A141G the self-cleavage was 0.8. For G54A C84U, the self-cleavage was 0.08. G54A G75C showed a self-cleavage of 0.33. With G54A G82A the self-cleavage was 0.9. For G54A G83A, the self-cleavage was 0.52. Work on G54A G88A yielded a self-cleavage of 0.08. For G54A G105U, the self-cleavage was 0.7. G54A U62A gave a self-cleavage of 0.01. With G54A U62C the self-cleavage was 0.07. Work on G54A U87A yielded a self-cleavage of 0.06. Variant G54A U87C has a self-cleavage of 0.1. Variant G54A U100A has a self-cleavage of 0.16. In the case of G54A U100C, the self-cleavage is reported as 0.31. Work on G54A U102C yielded a self-cleavage of 0.33. With G54A U109A the self-cleavage was 0.35. In the case of G54A U115A, the self-cleavage is reported as 0.64. G54A U119C gave a self-cleavage of 1.35. In the case of G54A U132C, the self-cleavage is reported as 0.53. G54A U143A gave a self-cleavage of 0.45. Work on G54C A117U yielded a self-cleavage of 1.23. Variant G54C C61U has a self-cleavage of 0.05. For G54C U81A, the self-cleavage was 0.4. Variant G54C U96C has a self-cleavage of 0.03. In the case of G54C U143A, the self-cleavage is reported as 1.3. Variant G54U A65G has a self-cleavage of 0.03. Variant G54U A69G has a self-cleavage of 0.17. With G54U A78G the self-cleavage was 0.44. G54U A92G gave a self-cleavage of 0.08. In the case of G54U A121G, the self-cleavage is reported as 0.97. Variant G54U A136G has a self-cleavage of 1. G54U A138U showed a self-cleavage of 1.01. G54U C71U gave a self-cleavage of 0.16. Variant G54U C84U has a self-cleavage of 0.07. Work on G54U C90A yielded a self-cleavage of 0.06. G54U G105A gave a self-cleavage of 0.87. G54U G114U gave a self-cleavage of 0.74. Work on G54U U62A yielded a self-cleavage of 0.02. G54U U81A showed a self-cleavage of 0.39. G54U U96C showed a self-cleavage of 0.07. G54U U100C showed a self-cleavage of 0.22. Work on G54U U104C yielded a self-cleavage of 1.28. For G54U U108C, the self-cleavage was 0.36. G54U U119C gave a self-cleavage of 1.34. Variant G54U U143C has a self-cleavage of 1.07. G55A A57G gave a self-cleavage of 0.15. G55A A94G gave a self-cleavage of 0.2. With G55A A107G the self-cleavage was 0.22. G55A A121G gave a self-cleavage of 0.26. Work on G55A A124U yielded a self-cleavage of 0.19. In the case of G55A A138G, the self-cleavage is reported as 0.51. G55A A140G showed a self-cleavage of 0.17. Work on G55A C63U yielded a self-cleavage of 0.13. With G55A C95U the self-cleavage was 0.11. G55A C111U gave a self-cleavage of 0.3. G55A U81A gave a self-cleavage of 0.08. Work on G55A U104C yielded a self-cleavage of 1.02. In the case of G55A U112C, the self-cleavage is reported as 0.14. Variant G55A U134C has a self-cleavage of 0.23. With G55C A77U the self-cleavage was 0.06. Variant G55C A107U has a self-cleavage of 0.08. For G55C A117C, the self-cleavage was 0.42. G55C A141G showed a self-cleavage of 0.55. For G55C C76A, the self-cleavage was 0.1. For G55C C120U, the self-cleavage was 0.27. Variant G55C U108C has a self-cleavage of 0.18. G55C U115C showed a self-cleavage of 0.26. G55U A59G showed a self-cleavage of 0.05. G55U A117G gave a self-cleavage of 0.3. For G55U A117U, the self-cleavage was 0.46. Work on G55U A121G yielded a self-cleavage of 0.37. In the case of G55U G144A, the self-cleavage is reported as 0.43. In the case of G55U U85A, the self-cleavage is reported as 0.03. For G55U U115A, the self-cleavage was 0.14. In the case of G55U U115C, the self-cleavage is reported as 0.4. With G55U U132C the self-cleavage was 0.16. Work on G55U U134C yielded a self-cleavage of 0.29. C56A A121G gave a self-cleavage of 0.03. For C56A A141G, the self-cleavage was 0.07. In the case of C56A U73C, the self-cleavage is reported as 0.05. C56A U96C showed a self-cleavage of 0.05. Work on C56A U100C yielded a self-cleavage of 0.1. With C56A U104C the self-cleavage was 0.1. C56A U143A showed a self-cleavage of 0.09. C56G A67G gave a self-cleavage of 0. Work on C56G A92U yielded a self-cleavage of 0.04. Variant C56G U91C has a self-cleavage of 0.05. Variant C56U A59U has a self-cleavage of 0.11. Work on C56U A67G yielded a self-cleavage of 0.07. With C56U A77G the self-cleavage was 0.16. C56U A117C gave a self-cleavage of 0.5. In the case of C56U A124G, the self-cleavage is reported as 0.08. C56U A129G showed a self-cleavage of 0.22. For C56U A136U, the self-cleavage was 0.13. In the case of C56U A138G, the self-cleavage is reported as 0.31. C56U A138U showed a self-cleavage of 0.1. C56U A141G showed a self-cleavage of 0.14. With C56U A142U the self-cleavage was 0.23. With C56U C71U the self-cleavage was 0.07. Work on C56U C111U yielded a self-cleavage of 0.19. Variant C56U G86A has a self-cleavage of 0.04. C56U U85A showed a self-cleavage of 0.04. Variant C56U U87C has a self-cleavage of 0.11. Variant C56U U100C has a self-cleavage of 0.44. C56U U112A gave a self-cleavage of 0.1. C56U U115C gave a self-cleavage of 0.19. C56U U134G gave a self-cleavage of 0.28. A57C showed a self-cleavage of 0.08. Variant A57C A69U has a self-cleavage of 0.08. For A57C A77U, the self-cleavage was 0.08. In the case of A57C A92U, the self-cleavage is reported as 0. For A57C A121U, the self-cleavage was 0.03. In the case of A57C A136G, the self-cleavage is reported as 0.05. With A57C A138G the self-cleavage was 0.22. In the case of A57C G72U, the self-cleavage is reported as 0.03. Work on A57C G86A yielded a self-cleavage of 0.04. In the case of A57C U102C, the self-cleavage is reported as 0.1.
